The target in assay [1] is recombinant soluble CMV envelope glycoprotein B (human cytomegalovirus) (UniProt P13201). Description: SPR (Biacore); DC-SIGN CRD injected over immobilised CMV gB; from koff/kon. (In general: Surface plasmon resonance follows binding to a sensor surface in real time, without labels.)
Assay [2] shares this target. The assay can be described thus: SPR (Biacore); DC-SIGN CRD injected over immobilised CMV gB; Langmuir fit, average.

pKd: −log10 of the molar value.

recombinant soluble CRD of DC-SIGN (amino acids 254-404), sequence (Q9NNX6 254-404 limits assumed): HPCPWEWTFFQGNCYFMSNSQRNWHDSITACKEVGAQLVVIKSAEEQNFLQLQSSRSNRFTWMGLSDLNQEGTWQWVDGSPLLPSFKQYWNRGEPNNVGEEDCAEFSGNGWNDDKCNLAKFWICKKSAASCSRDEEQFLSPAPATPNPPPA

As to “recombinant soluble CRD of DC-SIGN (amino acids 254-404) (from UniProt Q9NNX6 254-404) (receptor)”, the pKd (usually the Kd on a negative log10 scale, so that one unit is a factor of ten) in assay [1] is 6.54. Besides, in assay [2], the off-rate constant (koff) (commonly a measure of how fast the partners let go of each other) came out at 0.00126 s⁻¹ and the kon (usually the rate constant with which the complex forms) came to 4400 M⁻¹ s⁻¹.

The values are drawn from US20040141968A1.
